For one substance, ACE inhibition IC50 results are on record in patent publication US20140371148A1.

The assay addresses ACE from rabbit lung (rabbit) (UniProt P12822). Nature of the assay: cell-based or functional assay.

Chain of ACE from rabbit lung (rabbit) (P12822 34-1310 limits assumed, form in doubt): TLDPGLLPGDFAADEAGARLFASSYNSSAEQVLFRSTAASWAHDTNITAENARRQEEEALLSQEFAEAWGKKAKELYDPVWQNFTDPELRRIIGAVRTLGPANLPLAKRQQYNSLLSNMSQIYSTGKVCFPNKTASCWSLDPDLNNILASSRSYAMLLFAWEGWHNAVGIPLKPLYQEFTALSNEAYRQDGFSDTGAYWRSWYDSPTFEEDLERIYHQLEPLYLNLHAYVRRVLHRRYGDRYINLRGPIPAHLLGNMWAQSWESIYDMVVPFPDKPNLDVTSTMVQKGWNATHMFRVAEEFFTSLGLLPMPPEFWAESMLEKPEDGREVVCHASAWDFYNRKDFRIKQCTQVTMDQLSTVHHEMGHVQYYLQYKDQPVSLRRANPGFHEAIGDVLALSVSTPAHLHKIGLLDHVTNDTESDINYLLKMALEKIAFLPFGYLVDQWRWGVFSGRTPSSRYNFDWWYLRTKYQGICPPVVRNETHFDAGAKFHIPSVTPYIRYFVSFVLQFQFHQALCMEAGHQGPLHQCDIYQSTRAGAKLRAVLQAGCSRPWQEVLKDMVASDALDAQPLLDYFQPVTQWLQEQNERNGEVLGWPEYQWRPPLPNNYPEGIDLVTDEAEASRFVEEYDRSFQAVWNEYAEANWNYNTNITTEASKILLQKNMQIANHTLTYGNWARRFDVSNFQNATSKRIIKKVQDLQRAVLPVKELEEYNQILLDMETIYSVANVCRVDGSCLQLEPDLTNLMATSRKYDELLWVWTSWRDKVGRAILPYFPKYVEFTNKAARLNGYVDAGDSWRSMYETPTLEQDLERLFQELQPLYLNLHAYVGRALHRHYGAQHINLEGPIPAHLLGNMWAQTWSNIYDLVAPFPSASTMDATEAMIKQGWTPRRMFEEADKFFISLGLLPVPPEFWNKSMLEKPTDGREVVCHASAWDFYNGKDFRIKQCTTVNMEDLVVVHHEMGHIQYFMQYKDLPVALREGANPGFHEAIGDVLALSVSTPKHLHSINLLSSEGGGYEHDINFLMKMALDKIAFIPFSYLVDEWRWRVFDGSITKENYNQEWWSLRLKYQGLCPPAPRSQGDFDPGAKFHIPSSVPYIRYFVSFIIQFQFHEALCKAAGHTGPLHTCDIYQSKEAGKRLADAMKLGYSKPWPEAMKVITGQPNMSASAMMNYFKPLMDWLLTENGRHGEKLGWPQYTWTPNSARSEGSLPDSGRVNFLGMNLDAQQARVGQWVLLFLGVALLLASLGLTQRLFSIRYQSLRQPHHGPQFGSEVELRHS

On to “GLP-1-(7-37)-γ-Abu-N^ε2Lys-(Pyr)-WAP-OH (peptide)”, for which the ACE inhibition IC50 is > 10 µM.
